Assay: soluble on expression in E. coli; label from the status in PepcDB or PDB records

| Sequence | soluble on expression in E. coli |
| --- | --- |
| MAETVGMILCGGFGKRLRPLTEKIPKPLIEIKEGYTILDKQLFDLKNAGINTVYLLTGFLGERIEERYGDNYKGLRIEYVREEKPLGTLNAIRLGMEAIDGEKQCIIRNGDVVADLNIKKMIHLGEMSDYPLTMFITRMQSPYGIVETSGDKIINFREKPLLDYYINAGVYFSKGNLDFGDFESGDIEKTLFPLMAKENKLGYYREDGLFWMAIDTSKELEEIRKEYRNREDKPWGYEKILINTEKYLTKELFIREGYRTSFHYHEEKDETMYIISGSGYIEFDNRKEYFSKNDTIRIEPGERHSIVAMENTVLHEVSTPHLNDTVRVQDYYTRLEHHHHHH | soluble |
| MSTMSTPAAEQRKLVEQLMGRDFSFRHNRYSHQKRDLGLHDPKICKSYLVGECPYDLFQGTKQSLGKCPQMHLTKHKIQYEREVKQGKTFPEFEREYLAILSRFVNECNGQISVALQNLKHTAEERMKIQQVTEELDVLDVRIGLMGQEIDSLIRADEVSMGMLQSVKLQELISKRKEVAKRVRNITENVGQSAQQKLQVCEVCGAYLSRLDTDRRLADHFLGKIHLGYVKMREDYDRLMKNNRTTNASKTATTLPGRRFV | not soluble |
| MSLLLRMMGWKALVPSANPLQSVICVAPHTSNYDFLLGKLYYWSIGRKAGFLMKKEWFFFPLGPIFRAMGGIPIDRSKRGSTVEQVREFFQRHAVFNVAITPEGTRDYSPQWKTGFYRIAVGAGVPIQLAVIDYSYKEMSVFELFTPTGNEEADIAYIRSRYRASQARHPRNFAESEIEGHHHHHH | soluble |
| MILDTDYITENGKPVIRVFKKENGEFKIEYDRTFEPYFYALLKDDSAIEDVKKVTAKRHGTVVKVKRAEKVQKKFLGRPIEVWKLYFNHPQDVPAIRDRIRAHPAVVDIYEYDIPFAKRYLIDKGLIPMEGDEELTMLAFAIATLYHEGEEFGTGPILMISYADGSEARVITWKKIDLPYVDVVSTEKEMIKRFLRVVREKDPDVLITYNGDNFDFAYLKKRCEELGIKFTLGRDGSEPKIQRMGDRFAVEVKGRIHFDLYPVIRRTINLPTYTLEAVYEAVFGKPKEKVYAEEIAQAWESGEGLERVARYSMEDAKVTYELGREFFPMEAQLSRLIGQSLWDVSRSSTGNLVEWFLLRKAYKRNELAPNKPDERELARRRGGYAGGYVKEPERGLWDNIVYLDFRSLYPSIIITHNVSPDTLNREGCKEYDVAPEVGHKFCKDFPGFIPSLLGDLLEERQKIKRKMKATVDPLEKKLLDYRQRAIKILANSFYGYYGYAKARWYCKECAESVTAWGREYIEMVIRELEEKFGFKVLYADTDGLHATIPGADAETVKKKAKEFLKYINPKLPGLLELEYEGFYVRGFFVTKKKYAVIDEEGKITTRGLEIVRRDWSEIAKETQARVLEAILKHGDVEEAVRIVKEVTEKLSKYEVPPEKLVIHEQITRDLRDYKATGPHVAVAKRLAARGVKIRPGTVISYIVLKGSGRIGDRAIPADEFDPTKHRYDAEYYIENQVLPAVERILKAFGYRKEDLRYQKTKQVGLGAWLKVKGKK | soluble |
| MNEREAKMYELEFPAPDVASDGVDGPTLIIAMQGYADAGLAVEASADHLLSALEHRPVAVFNNDELIDYRSRRPAVTIDHNIVVDANELKLSMDVLRDSNGTPFLLLSGPEPDLRWDAFSQAVADLVRRFGVRRTICIYAAPMTVPHTRPLIVSAHGNSLDLIKHHFSIDSKVTIPGSASLHIERLLNKNNIDVAGYTAHVPHYLSASAYPLATLKLLEAITTSTNLDFPLKTLEADAQKTALQVEEQVAGSQEIESVVKILEQQYDEELEKYRERNPKALEIAEDDLPDADELGEEFERFLANIDEENGSDD | not soluble |
| GPGSMASVSPSETGGTLITFLQQLRGTLVEIELKNASIVSGEIAYVDANMNTYMSHAKITSKGKNPVEVEEYMVRGSTIRYIIMPESLNTYDILKQASTKKNGASKK | soluble |
| MGSDKIHHHHHHMAILLMQKPDNKAKQFICKKLGINNLGITKPGGRGLTQPVVKLELKRPLYAKGNNYNIINNDETDRYWKPAGITKIFLDRLTNCVSQEAGNMALAEGYFSLEDRYTLYFDISKIQQEFVDLNAQEFFRQFDNLKTLGMLADIAIPLQLCNGLDASITNFSDGQFQSVYIYSIVELFKDRNCLTLLDEPDSFLHPEWQFEFPKQVLEITDAAAKSNHILMSSHSASTITTANENLINLFELQDDKIVVNKVNKADIIKSLSAGLISFSESEAHLNIHHALKNTTGAVLFTEGITDEMILETAWTKIFPAQKRSFAIQNAFDRIFLRNLFSREELEKNFPDRIMFALFDFDEAYDDWNGLKKESDSETDPYKGLSKQLKCKHHYAMLLPVPDIQALKHQVLNPEGKPWGKGAQSHLPIELLFYKDEFLGQWFQKKATPGGGEIIEFIGDKVSFAKNFVPTLEATCFEPLKLVFEFIQSKC | not soluble |

From the DeepSol protein solubility set
